In publication PMC5732184, “Arabidopsis Basic Helix-Loop-Helix 34 (bHLH34) Is Involved in Glucose Signaling through Binding to a GAGA Cis-Element”:

T1: His-bHLH34 (Arabidopsis thaliana) (UniProt Q9LTC7)
T1 sequence: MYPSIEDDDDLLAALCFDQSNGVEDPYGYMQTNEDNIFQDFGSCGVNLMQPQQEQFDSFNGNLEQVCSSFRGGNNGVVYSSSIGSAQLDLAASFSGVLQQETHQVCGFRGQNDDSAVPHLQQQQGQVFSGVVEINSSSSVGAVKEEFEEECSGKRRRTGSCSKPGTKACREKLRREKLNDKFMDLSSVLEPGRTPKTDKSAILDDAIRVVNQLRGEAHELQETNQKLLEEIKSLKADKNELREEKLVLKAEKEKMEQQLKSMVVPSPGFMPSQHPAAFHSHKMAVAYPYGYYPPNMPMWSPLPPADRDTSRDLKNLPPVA

T2: His-bHLH34 (Arabidopsis thaliana, UniProt Q9LTC7 1-320)
T2 sequence: T1 sequence

B1: DBE1 m2 (dsDNA)
DNA 1: AGAAGTGACGGC
DNA 2: GCCGTCACTTCT
B2: DBE1 m1 (dsDNA)
DNA 1: AGAATAGACGGC
DNA 2: GCCGTCTATTCT
B3: DBE1 m4 (dsDNA)
DNA 1: AGAAGAGTCGGC
DNA 2: GCCGACTCTTCT
B4: DBE2 (dsDNA)
DNA 1: CCAGGAGAGGTT
DNA 2: AACCTCTCCTGG
B5: DBE1 (dsDNA)
DNA 1: AGAAGAGACGGC
DNA 2: GCCGTCTCTTCT
B6: DBE1 m3 (dsDNA)
DNA 1: AGAAGATACGGC
DNA 2: GCCGTATCTTCT
B7: DBE4 (dsDNA)
DNA 1: CTTAGAGAGGAG
DNA 2: CTCCTCTCTAAG
B8: DBE6 (dsDNA)
DNA 1: GAGGGAGATTCA
DNA 2: TGAATCTCCCTC
B9: DBE3 (dsDNA)
DNA 1: AAATGAGAGGAT
DNA 2: ATCCTCTCATTT
B10: DBE5 (dsDNA)
DNA 1: AAATGAGATCAT
DNA 2: ATGATCTCATTT
B11: E-box (dsDNA)
DNA 1: CCGGCCACTTGTGCCA
DNA 2: TGGCACAAGTGGCCGG
B12: DBE1 unlabeled competitor (dsDNA)
DNA 1: AGAAGAGACGGC
DNA 2: GCCGTCTCTTCT

target: T1, His-bHLH34 (Arabidopsis thaliana); assay: EMSA; settings: 10 mM Tris-HCl pH 7.5, 50 mM KCl, 1 mM EDTA, 1 mM DTT, 2.5% glycerol, 1 ug poly(dI-dC), 100 ng protein, 0.3 pmol DNA in 20 uL; 25 C 20 min; 5% native PAGE in …

Molecule	binding
TATTCGCAACCTATTCACAATTCACAAACTTTCAAATAAATGCGCCAAACTAAGTCAGATCCTCAAGATCGGTGTATACAAATCAGAAATCGTTACACAACCTTAGAGAGGAGGGTAGAAATGAGATCATCAGGTCCAGT (double strand) [P3 fragment (-734 to -595)]	binds
GTGATGGAGGTGTGACGCTAAGCCCTGAGCAGCACAAGGAGGTGGCACAAGTGGCCGGAGAGCTTCAAAAGTACTGTGTCAAGGAGCCTGTCAAAAATCCTCTCATTTTTGGAGGTAAAAGTGTAAGAACCTAGCTGCCA (double strand) [P2 fragment (-874 to -735)]	binds
AACCACGGACTCAGATCCATTCCTCGAGACGTTTGAATCTCCCTCTTCAATATTCAATCCCGTACAAGGTGTTACGGAGTAGGAGTAGAAGATTAGGACTCGTCGTCAGTTCTGTTTCAGCTCCCAACGTTGAGCTCCGT (double strand) [P4 fragment (-594 to -456)]	binds
GAAGAAGAGACGGCCTATCACGCTTCTGTAGCCTCCACCAGGAGAGGTTGGTCTAGAACAGTACACCACTTCCCAATCTGCACCAAATCCCACAAGTTCACATATTGATCCAAGGAAGAAGCAA (double strand) [P1 fragment (-999 to -875)]	binds

target: T2, His-bHLH34; assay: EMSA; 10 mM Tris-HCl pH 7.5, 50 mM KCl, 1 mM EDTA, 1 mM DTT, 2.5% glycerol, 1 ug poly(dI-dC), 100 ng protein, 0.3 pmol DNA in 20 uL; 25 C 20 min; 5% native PAGE in TBE at 4 C; settings: protein: recombinant; tags: His tag (pET300/NT-DEST); chain copies: 2; label: 32P; blunt

Molecule	binding result
B1	no binding
B2	no binding
B3	no binding
B4	binds
B5	binds
B6	no binding
B7	binds
B8	binds
B9	binds
B10	binds
B11	binds

target: T2, His-bHLH34; assay: competition; 10-100x excess against 32P-DBE1; 10 mM Tris-HCl pH 7.5, 50 mM KCl, 1 mM EDTA, 1 mM DTT, 2.5% glycerol, 1 ug poly(dI-dC), 100 ng protein, 0.3 pmol DNA in 20 uL; 25 C 20 min; 5% native PAGE in TBE at 4 C; settings: protein: recombinant; tags: His tag (pET300/NT-DEST); chain copies: 2; blunt

Molecule	binding result
B12	binds
